The results in this text go back to article PMC10066184.

This assay deals with GltTk_P208R (UniProt Q5JID0). The experiment in a line: cryo-EM structure; single-particle cryo-EM of GltTk_P208R in MSP2N2 nanodiscs (E. coli lipids), 20 mM Tris-HCl pH 8.0, 100 mM KCl, with 300 mM NaCl and 100 uM L-Asp added; C3 symmetry imposed.

Regarding “GltTk_P208R (from UniProt Q5JID0 1-430) (natural protein)”, the stoichiometry N (in general, the number of molecules, sites or subunits per partner or assembly) was found to be 3.
